Consider one molecule from article PMC9599297, “Graphitic Carbon Nitride and IGZO Bio-FET for Rapid Diagnosis of Myocardial Infarction”.

This series has as its target cardiac troponin I (cTnI) (UniProt P19429 2-210). The series is described as follows: FET aptasensor (IGZO/PCN-Au NPs), drain current change; 47% current change; response 0.01-1000 ng/mL, LOD 0.0066 ng/mL (no Kd); 10 mM PBS pH 7.4 (PBS tablets: 2.7 mM KCl, 137 mM NaCl), 10 min incubation, water wash; surface blocked with MCH and 0.10 mg/mL BSA; temperature not stated. Conditions: protein: commercial.

cardiac troponin I (cTnI), sequence (P19429 2-210): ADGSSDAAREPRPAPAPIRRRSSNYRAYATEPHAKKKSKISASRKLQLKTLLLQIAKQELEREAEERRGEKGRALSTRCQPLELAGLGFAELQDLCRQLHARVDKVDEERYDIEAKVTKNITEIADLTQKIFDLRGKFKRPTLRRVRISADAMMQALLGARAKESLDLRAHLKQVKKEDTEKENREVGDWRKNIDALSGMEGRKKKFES

In the case of CGTGCAGTACGCCAACCTTTCTCATGCGCTGCCCCTTA (ssDNA, ThiC6 (thiol-C6) at 5' end, immobilised on Au NPs) [Tro4 anti-cTnI DNA aptamer], the binding result is “binds”.
